Common to all, as to assay type: cell-based
The test system of one experiment is GFP-DLC1. The experiment in a line: GST pull-down of GFP-DLC1 in HEK 293T cells. As to conditions: HEK 293T cells co-transfected with GFP-DLC1 and GST-tagged talin constructs, immunoblot. Here is the method: We reported previously that wild-type talin R8 is sufficient to form a complex with full-length DLC1 in cells ([Li et al., 2011]). To evaluate the effects of the single K1530E and K1544E and double K1530E/K1544E (2E) R8 mutants on the complex formation in vivo, we engineered GST-tagged R8 constructs into isogenic mammalian expression plasmids and co-transfected them with GFP-DLC1 into HEK 293T cells. Complex formation was determined by a GST pull-down assay.
The plasmids expressing GFP-DLC1 and GST fusion proteins with talin rod fragments encoding talin amino acids 1,288–1,646 and 1,453–1,580 (R8) were described previously ([Li et al., 2011]). The plasmid encoding 1,352–1,580 (R7R8) was engineered by PCR and subcloned into a eukaryotic expression vector, PEBG. HEK293T cells were transfected by Lipofectamine 2000, and DLC1-null lung adenocarcinoma cell lines A549 and H358 cells were transfected by Lipofectamine 3000 according to the manufacturer’s instructions (Invitrogen). Cells were co-transfected with plasmids expressing GFP-DLC1 or Paxillin-DDK and GST, GST-talin fragments, or vector at a ratio of 1:2.5. Cells were incubated at 37°C in a humidified 5% CO2 atmosphere. In vivo pull-down assay, co-immunoprecipitation, immunoblotting, G418 colony growth, soft agar growth, and cell migration assays were described previously ([Qian et al., 2009]). All experiments were conducted in triplicate.
Figure S2, related to Figures 4 and 5. […]
R8 talin fragment were co-transfected with GFP-DLC1 into 293T cells. Cell extracts were subjected
(1 picture or pasted object on this page, not shown here) […]
to pull-down assay with glutathione beads followed by immunoblotting with anti-GST and anti-DLC1 on the same membrane (top). The transfected GFP-DLC1 in each sample is shown by the anti-DLC1 blot (bottom) as a loading control. […]
HEK 293T cells were transfected by lipofectamine 2000 and DLC1-null lung adenocarcinoma cell lines A549 and H358 cells were transfected by lipofectamine 3000 according to manufacturer instructions (Invitrogen). Cells were co-transfected with plasmids expressing GFP-DLC1 or Paxillin-DDK and GST, GST-talin fragments, or vector at a ratio of 1:2.5. Cells were incubated at 37 °C in a humidified 5% CO2 atmosphere.
In vivo pull-down assay, co-immunoprecipitation, and immunoblotting - As described previously (Qian et al., 2009), two days after transfection, cell extracts were collected using golden lysis buffer (GLB: 20 mM Tris pH 7.9, 137 mM NaCl, 10% glycerol, 1% Triton, 5 mM EDTA, 1 mM EGTA, 1 mM Na3VO4, 10 mM NaF, 1 mM sodium pyrophosphate, 0.5 mM β-glycerophosphate, and protease inhibitor cocktail tablet (Roche)). The cleared supernatants were collected, and the amount of protein estimated by BCA kit (Pierce). […]

In experiment [1] the test system is A549 human non-small cell lung cancer line. Nature of the experiment: Growth in soft agar. As to conditions: transfected A549, 3 weeks; mean over three experiments. From the text:
(§1) Figure 6 Talin R8 Mutations Disrupt the Interaction with DLC1 and Affect Its Biological Activity (A) Wild-type GST-talin fragments pull down more DLC1 than the 2E mutants. Extracts of HEK293T cells transfected with GFP-DLC1 and GST-talin constructs were subjected to pull-down assays with glutathione beads followed by immunoblotting with anti-GST and anti-DLC1 on the same membrane (top). The transfected GFP-DLC1 in each sample is shown by the anti-DLC1 blot (bottom) as a loading control. (B) Wild-type GST-talin fragments compete efficiently with endogenous talin to form a complex with DLC1. The supernatants collected after pull-down assay from (A) were reused for co-immunoprecipitation with an anti-talin antibody and blotted with anti-DLC1 (top). A small aliquot from each lane was blotted for endogenous talin as a loading control (bottom). (C) Co-expression of GST or GST-talin fragments (wild-type or 2E mutant) with GFP DLC1 in A549 cells. […] Transfected A549 cells were cultured in G418 for 3 weeks, and colonies counted and quantitated (top). […] Transfected A549 cells were grown for 3 weeks in soft agar, and colonies counted and quantitated (top). […] Lysates from migrated cells were quantitated (top), and representative microscopic images of the migrated cells are shown (bottom). […]

For experiment [2] the test system is unchanged. Nature of the experiment: Transwell cell migration assay. The conditions noted are these: transfected A549, transwell, 24 h; mean over three experiments.
From the text: as §1

Experiment [3] shares this test system. The experiment in a line: G418 (monolayer) colony growth assay. The conditions noted are these: transfected A549, G418 for 3 weeks; mean over three experiments.
From the text: as §1

Experimental findings from paper PMC4938799, “LD Motif Recognition by Talin: Structure of the Talin-DLC1 Complex” (Structure(London, England:1993), 2016) are described below.

Changes are numbered by the printed parent chain. Names and notes keep the numbering of the source. “Also recorded” adds a separate entry of the source.

B1: talin R8 K1530E: GST-tagged talin R8 single mutant K1530E (protein)
chain: NSQAGQQGLVEPTQFARANQAIQMACQSLGEPGCTQAQVLSAATIVAKHTSALCNSCRLASARTANPTAKRQFVQSAEEVANSTANLVKTIKALDGDFTEENRAQCRAATAPLLEAVDNLSAFASNPE
modifications: left off: GST, end not stated, kept
On to B1, for which the “DLC1 binding in GST pull-down” value in the experiment on GFP-DLC1 is “greater reduction in DLC1 binding than K1544E”; in the experiment with GFP-DLC1 (listed as GST-talin R1530E), “binds DLC1 less well than the K1544E mutant”.

B2: 2E double mutant: GST-tagged talin R8 K1530E/K1544E double mutant (protein)
chain: B1 chain with K92E
modifications: left off: GST, end not stated, kept
As to B2, the “DLC1 binding in GST pull-down” value with GFP-DLC1 is “reduced binding to a greater extent than either single mutant”; with GFP-DLC1 (listed as talin R8 K1530E/K1544E double mutant), “markedly reduced binding”.

B3: GFP-DLC1: GFP fusion of full-length DLC1 expressed from plasmid (protein)
chain: MCRKKPDTMILTQIEAKEACDWLRATGFPQYAQLYEDFLFPIDISLVKREHDFLDRDAIEALCRRLNTLNKCAVMKLEISPHRKRSDDSDEDEPCAISGKWTFQRDSKRWSRLEEFDVFSPKQDLVPGSPDDSHPKDGPSPGGTLMDLSERQEVSSVRSLSSTGSLPSHAPPSEDAATPRTNSVISVCSSSNLAGNDDSFGSLPSPKELSSFSFSMKGHEKTAKSKTRSLLKRMESLKLKSSHHSKHKAPSKLGLIISGPILQEGMDEEKLKQLNCVEISALNGNRINVPMVRKRSVSNSTQTSSSSSQSETSSAVSTPSPVTRTRSLSACNKRVGMYLEGFDPFNQSTFNNVVEQNFKNRESYPEDTVFYIPEDHKPGTFPKALTNGSFSPSGNNGSVNWRTGSFHGPGHISLRRENSSDSPKELKRRNSSSSMSSRLSIYDNVPGSILYSSSGDLADLENEDIFPELDDILYHVKGMQRIVNQWSEKFSDEGDSDSALDSVSPCPSSPKQIHLDVDNDRTTPSDLDSTGNSLNEPEEPSEIPERRDSGVGASLTRSNRHRLRWHSFQSSHRPSLNSVSLQINCQSVAQMNLLQKYSLLKLTALLEKYTPSNKHGFSWAVPKFMKRIKVPDYKDRSVFGVPLTVNVQRTGQPLPQSIQQAMRYLRNHCLDQVGLFRKSGVKSRIQALRQMNEGAIDCVNYEGQSAYDVADMLKQYFRDLPEPLMTNKLSETFLQIYQYVPKDQRLQAIKAAIMLLPDENREVLQTLLYFLSDVTAAVKENQMTPTNLAVCLAPSLFHLNTLKRENSSPRVMQRKQSLGKPDQKDLNENLAATQGLAHMIAECKKLFQVPEEMSRCRNSYTEQELKPLTLEALGHLGNDDSADYQHFLQDCVDGLFKEVKEKFKGWVSYSTSEQAELSYKKVSEGPPLRLWRSVIEVPAVPEEILKRLLKEQHLWDVDLLDSKVIEILDSQTEIYQYVQNSMAPHPARDYVVLRTWRTNLPKGACALLLTSVDHDRAPVVGVRVNVLLSRYLIEPCGPGKSKLTYMCRVDLRGHMPEWYTKSFGHLCAAEVVKIRDSFSNQNTETKDTKSR
modifications: left off: GFP, end not stated, kept
notes: GFP fusion of full-length DLC1 expressed from plasmid
Regarding B3, in experiment [1], the “growth in soft agar” value is recorded as “inhibitory in all three assays”. For the same molecule, the cell migration result in experiment [2] was “suppressed cell migration; also recorded: inhibitory in all three assays”. Also, the colony growth entry in experiment [3] is given as “suppressed colony formation; also recorded: inhibitory in all three assays”.
